# Assay results from paper PMC9464622 (2022).
# T1: LL-37 (Homo sapiens, UniProt P49913)
# T1 chain: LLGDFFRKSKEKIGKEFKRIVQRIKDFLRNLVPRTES
# B1: rfhSP-A trimeric recombinant fragment (protein)
# chain: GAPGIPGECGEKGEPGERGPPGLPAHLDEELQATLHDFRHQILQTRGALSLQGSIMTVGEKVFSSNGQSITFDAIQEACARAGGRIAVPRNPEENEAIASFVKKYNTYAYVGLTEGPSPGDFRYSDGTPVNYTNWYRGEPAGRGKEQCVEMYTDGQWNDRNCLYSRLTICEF
# Target: T1, LL-37
# Assay: tryptophan fluorescence
binder,measurement,value
B1,Kd,1.22 nM
